Laboratory results taken from PMC7943578.

Legend:
CC-Type2-(LaIdGe)4 [1] = test: AUC; sedimentation velocity with DPH, absorbance of DPH at 350 nm; 200 uM peptide, 5 uM DPH, 5% v/v DMSO in PBS pH 7.4, 25 C
CC-Type2-(LaIdGe)4 [2] = test: AUC; sedimentation velocity, 150 uM peptide, 20 C, 50 krpm, PBS pH 7.4; self-association of the peptide
CC-Type2-(LaIdGe)4 [3] = test: SEC; Superdex75 10/300 GL, 25% v/v IPA in PBS, samples loaded at 150 uM, monitored at 220 nm
CC-Type2-(LaIdGe)4 [4] = test: AUC; sedimentation equilibrium, 70 uM peptide, 20 C, PBS pH 7.4, single species model; self-association of the peptide
CC-Type2-(LaIdGe)4 [5] = test: AUC; sedimentation equilibrium with 15% v/v isopropanol, 70 uM peptide, PBS pH 7.4, 30-45 krpm, single ideal species fit
CC-Type2-(LaIdGe)4 [6] = test: AUC; sedimentation velocity with 25% v/v isopropanol, 150 uM peptide, PBS pH 7.4
[7] = target: CC-Type2-(LaIdGe)4-W19BrPhe; test: crystal structure; vapour diffusion at 19 C; 0.05 M sodium HEPES, 5% w/v PEG 4000, 5% v/v 2-propanol, pH 7; SAD phasing on bromine

Row | Substance | stoichiometry N (x monomer mass) (CC-Type2-(LaIdGe)4 [1]) | stoichiometry N (CC-Type2-(LaIdGe)4 [2]) | stoichiometry N (CC-Type2-(LaIdGe)4 [3]) | stoichiometry N (CC-Type2-(LaIdGe)4 [4]) | stoichiometry N (x monomer mass) (CC-Type2-(LaIdGe)4 [5]) | stoichiometry N (x monomer mass) (CC-Type2-(LaIdGe)4 [6]) | stoichiometry N [7]
1 | CC-Type2-(LaIdGe)4 (peptide) | 6.2 | 6 | 6 | 6 | 5.7 | 5.5 | 
2 | CC-Type2-(LaIdGe)4-W19BrPhe (peptide) |  |  |  |  |  |  | 6
